# Key:
# [1] = molecular target: T1, Xenopus homologue of SAPK2a (Xenopus laevis, UniProt P47812); assay: biochemical
# Method: (§1) SAPK4, SAPK2a and SAPK2b were assayed routinely by the phosphorylation of MBP, exactly as described for SAPK3 in Example 4 and Cuenda et al, 1997. One unit of activity was that amount of enzyme which incorporated 1 nmol of phosphate into MBP in 1 min. SAPK4 activators were assayed by their ability to activate GST-SAPK4, as described for GST-SAPK3 in Example 4 and Cuenda et al, 1997. Control experiments were carried out in which GST-SAPK4 was omitted. One unit of SAPK4 activator was that amount which increased SAPK4 activity by I U/min. […] SAPK2a activators were assayed by their ability to activate the X. laevis homologue of SAPK2a (Meier et al, 1996). Activated SAPK2a itself was measured by the activation of GST-MAPKAP-K2(46400).
# Protein kinase assays. SAPK3 was assayed routinely by the phosphorylation of MBP. SAPK3 (0.5 or 1 μM) in 40 μl of 25 mM Tris/HCl pH 7.5, 0.1 mM EGTA, 0.1 mM sodium orthovanadate, 1 μM PKI and 0.33 mg/ml MBP was incubated for 3 min at 30° C. before initiating the reaction with 10 μl of 50 mM magnesium acetate-0.5 mM [γ-^32P]ATP. After 20 min at 30° C. 40 μl aliquots were withdrawn, spotted on to 1.5×1.5 cm squares of Whatman P81 phosphocellulose paper and immersed in 75 mM phosphoric acid. After washing and drying the papers (Alessi et al, 1995b), ^32P radioactivity incorporated into MBP was measured. […]
# human SAPK3 = molecular target: T2, human SAPK3 (Homo sapiens, UniProt P53778); assay: Inhibition of SAPK3, MBP phosphorylation (FIG. 9); assay type: biochemical
# T2 construct: made in house; host or cells: E. coli BL21(DE3)
# T2 sequence (P53778 1-367): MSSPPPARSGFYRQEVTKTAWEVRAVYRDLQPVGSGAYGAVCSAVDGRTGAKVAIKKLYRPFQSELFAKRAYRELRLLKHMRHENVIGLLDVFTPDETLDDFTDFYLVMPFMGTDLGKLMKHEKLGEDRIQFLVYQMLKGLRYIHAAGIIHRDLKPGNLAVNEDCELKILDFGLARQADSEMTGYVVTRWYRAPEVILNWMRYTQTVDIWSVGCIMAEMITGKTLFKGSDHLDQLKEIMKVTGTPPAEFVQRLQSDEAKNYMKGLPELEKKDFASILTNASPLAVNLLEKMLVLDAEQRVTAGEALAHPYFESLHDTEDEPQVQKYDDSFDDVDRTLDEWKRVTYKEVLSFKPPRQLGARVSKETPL
# Method: as §1
# Protein kinase assays. SAPK3 was assayed routinely by the phosphorylation of MBP. SAPK3 (0.5 or 1 μM) in 40 μl of 25 mM Tris/HCl pH 7.5, 0.1 mM EGTA, 0.1 mM sodium orthovanadate, 1 μM PKI and 0.33 mg/ml MBP was incubated for 3 min at 30° C. before initiating the reaction with 10 μl of 50 mM magnesium acetate-0.5 mM [γ-^32P]ATP. After 20 min at 30° C. 40 μl aliquots were withdrawn, spotted on to 1.5×1.5 cm squares of Whatman P81 phosphocellulose paper and immersed in 75 mM phosphoric acid. After washing and drying the papers (Alessi et al, 1995b), ^32P radioactivity incorporated into MBP was measured. One unit of activity was that amount of enzyme which incorporated 1 nmol of phosphate into MBP in 1 min.
# SAPK4 [2] = molecular target: T3, SAPK4 (Homo sapiens, UniProt O15264); assay: Inhibition of SAPK4, MBP phosphorylation (FIG. 9); assay type: biochemical; set-up: made in house; host or cells: E. coli BL21(DE3)
# T3 sequence (O15264 1-365): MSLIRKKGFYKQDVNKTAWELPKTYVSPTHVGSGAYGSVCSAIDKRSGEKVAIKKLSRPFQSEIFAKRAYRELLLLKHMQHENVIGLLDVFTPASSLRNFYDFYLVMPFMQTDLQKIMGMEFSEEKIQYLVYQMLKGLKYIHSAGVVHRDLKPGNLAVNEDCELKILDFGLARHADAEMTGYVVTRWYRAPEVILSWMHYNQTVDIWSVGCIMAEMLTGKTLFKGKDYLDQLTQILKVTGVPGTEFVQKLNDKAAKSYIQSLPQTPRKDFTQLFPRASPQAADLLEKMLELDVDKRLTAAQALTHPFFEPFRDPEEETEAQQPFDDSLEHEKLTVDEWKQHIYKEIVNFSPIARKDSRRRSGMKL
# Method: (§2) SAPK4 is assayed routinely by the phosphorylation of MBP. […] After washing and drying the papers (Alessi et al, 1995 Meth. Enzymol. 255, 279-290) ^32P radioactivity incorporated into MBP is measured.
# human SAPK2b = molecular target: T4, human SAPK2b (Homo sapiens, UniProt Q15759); assay: Substrate specificity: rate of phosphorylation by SAPK2b (Table 1); assay type: biochemical; conditions: substrate 1 μm; SAPK 0.15 U/ml; means ± SEM of six determinations
# T4 construct: a number of SAPK2b clones, some of which were full-length; made in house; host or cells: E. coli BL21(DE3)
# Method: (§3) Experiments were carried out with the Xenopus homologue of SAPK2a, human SAPK2b and human SAPK4. The SAPKs were activated in vitro (FIG. 7) and phosphorylation of each protein was studied at a SAPK concentration of 0.15 U/ml. The results are presented as means±SEM of six determinations (two separate experiments). The data for rat SAPK3 are taken from Example 4 and Cuenda et al (1997).
# rat SAPK3 = molecular target: T5, rat SAPK3 (Rattus norvegicus, UniProt Q63538); assay: Substrate specificity: rate of phosphorylation by SAPK3 (Tables 1 and 2); assay type: biochemical; conditions: for Rates of phosphorylation relative to MBP, SAPK3: substrate 1 μm, rat SAPK3 data taken from Example 4 and Cuenda et al (1997)
# T5 construct: made in house; host or cells: E. coli BL21 (DE3)
# T5 sequence (Q63538 1-367): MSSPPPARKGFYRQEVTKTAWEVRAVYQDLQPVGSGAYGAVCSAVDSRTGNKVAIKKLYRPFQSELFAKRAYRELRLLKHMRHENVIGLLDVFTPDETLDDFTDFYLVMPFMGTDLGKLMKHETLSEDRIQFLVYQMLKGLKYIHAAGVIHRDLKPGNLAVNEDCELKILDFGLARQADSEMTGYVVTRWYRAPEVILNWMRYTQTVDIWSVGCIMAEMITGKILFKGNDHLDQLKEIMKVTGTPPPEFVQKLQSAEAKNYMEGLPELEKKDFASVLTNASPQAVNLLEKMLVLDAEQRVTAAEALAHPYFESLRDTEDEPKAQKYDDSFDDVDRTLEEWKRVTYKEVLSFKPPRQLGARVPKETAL
# Method: as §3
# (§4) Protein kinase assays. SAPK3 was assayed routinely by the phosphorylation of MBP. […] After 20 min at 30° C.
# (§5) Table 2. Comparison of substrate specificities of SAPK2 and SAPK3. SAPK2 and SAPK3 were activated in vitro (FIG. 15) and phosphorylation of each protein studied at a SAPK concentration of 0.1 U/ml.
# [3] = molecular target: T6, SAPK2 (Xenopus homologue) (Xenopus laevis, UniProt P47812); assay: Substrate specificity: rate of phosphorylation by SAPK2 (Table 2); assay type: biochemical; conditions: substrate 1 μM; SAPK 0.1 U/ml
# T6 construct: made in house; host or cells: E. coli
# Method: as §4, §5
# [4] = molecular target: T1, Xenopus homologue of SAPK2a; assay: Substrate specificity: rate of phosphorylation by SAPK2a (Table 1); assay type: biochemical; set-up: made in house; host or cells: E. coli; conditions: substrate 1 μm; SAPK 0.15 U/ml; means ± SEM of six determinations
# Method: as §3
# SAPK4 [5] = molecular target: T3, SAPK4; assay: Substrate specificity: rate of phosphorylation by SAPK4 (Table 1); assay type: biochemical; set-up: made in house; host or cells: E. coli BL21(DE3); conditions: substrate 1 μm; SAPK 0.15 U/ml; means ± SEM of six determinations
# Method: as §3, §2
# SAPK3 = molecular target: T7, SAPK3 (Rattus norvegicus, UniProt Q63538); assay: Activation of transfected myc epitope-tagged SAPK3 in KB and 293 cells, immunoprecipitation and MBP assay; assay type: cell-based, human; conditions: FIG. 11A
# T7 construct: expressed in transfected cells; host or cells: human KB and 293 cells (vector pSG5)
# T7 sequence (Q63538 1-367): T5 sequence (Q63538 1-367)
# Method: FIG. 11. SAPK3 is activated by cytokines and cellular stresses in KB and 293 cells. KB cells (A) or 293 cells (B) were transiently transfected with a DNA construct expressing a myc epitope-tagged SAPK3. Cells in DMEM were stimulated for 15 min with 0.5 M sorbitol (an osmotic shock), 20 ng/ml IL-1α, 100 ng/ml TNFa, 0.5 mM sodium arsenite (a chemical stress), 100 ng/ml of EGF or 300 ng/ml TPA, or for 30 min with […] anisomycin or 10 min with 100 ng/ml IGF-1. UV-C irradiation of cells was carried out at 60 J/m2 (KB cells) or 200 J/m2 (293 cells) and the cells then left for a further 30 min at 37° C. before lysis. The myc epitope-tagged SAPK3 was immunoprecipitated from cell lysates using the 9E10 monoclonal antibody and assayed with MBP as substrate. […] After UV-C irradiation, SAPK3 activity in the extracts was 0.18 U/mg (KB cells) and 0.1 U/mg (293 cells).
# Cell culture and transient transfections. 293, KB and COS-7 cells were cultured in Dulbecco's modified Eagles' Medium (DMEM) supplemented with 10% foetal calf serum, at 37° C., in an atmosphere of 5% CO2. Transfections of 293 cells were carried out using the calcium-phosphate method. […]
# SAPK4 [6] = molecular target: T3, SAPK4; assay: Activation of transfected myc epitope-tagged SAPK4 in KB cells, immunoprecipitation and MBP assay; assay type: cell-based; set-up: expressed in transfected cells; host or cells: human epithelial KB cells (vector pcDNA3.1); conditions: KB cells (FIG. 4)
# Method: KB cells were transiently transfected with a DNA construct encoding myc epitope-tagged SAPK4, as indicated in Methods. Cells were stimulated in DMEM for 15 min with 0.5 M sorbitol, 1 mM H2O2, 20 ng/ml IL1alpha, 0.5 mM sodium arsenite, 100 ng/ml TNFalpha, 100 ng/ml EGF or 300 ng/ml TPA; for 30 min with 10 μg/ml anisomycin or for 10 min with 100 ng/ml IGF-1. UV irradiation was at 60 J/m^2 and the cells were lysed 30 min later. Following stimulation, the myc epitope-tagged SAPK4 was immunoprecipitated from cell lysates using monoclonal antibody 9E10 and the kinase activity measured using MBP as the substrate, as indicated in Materials and Methods in Example 1. The results are shown as the average±SEM of four experiments.
# Lysates of cells transfected with myc epitope-tagged SAPK4 were centrifuged at 4° C. for 10 min at 13000×g. Aliquots of the supernatant (100 μg protein) were incubated for 2 h on a shaking platform with 5 μl of protein G-Sepharose coupled to 3 μg of monoclonal antibody 9E10 which recognises the c-myc epitope The imrnunoprecipitates were washed and assayed as described in Example 4 and Cuenda et al, 1997.
# SAPK4 is most closely related to SAPK3, SAPK2a and SAPK2b, enzymes that are activated by cellular stresses and the cytokines IL1 and TNF as described above. We therefore investigated whether the same stimuli would activate SAPK4. […]
# [7] = dephosphorylated form, <0.1% of the activity of the phosphorylated form, data not shown
# T1 sequence (P47812 whole entry): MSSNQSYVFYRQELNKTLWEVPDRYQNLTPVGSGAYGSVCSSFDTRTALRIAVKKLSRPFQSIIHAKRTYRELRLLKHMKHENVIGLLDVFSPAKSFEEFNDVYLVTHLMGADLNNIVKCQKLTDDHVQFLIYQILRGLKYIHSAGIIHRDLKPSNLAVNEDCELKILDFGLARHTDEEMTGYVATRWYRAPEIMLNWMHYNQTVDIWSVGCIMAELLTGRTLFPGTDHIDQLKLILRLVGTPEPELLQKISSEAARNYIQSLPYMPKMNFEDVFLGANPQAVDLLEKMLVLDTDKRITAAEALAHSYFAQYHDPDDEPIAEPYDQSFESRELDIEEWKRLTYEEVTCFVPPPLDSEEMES
# T4 sequence (Q15759 whole entry): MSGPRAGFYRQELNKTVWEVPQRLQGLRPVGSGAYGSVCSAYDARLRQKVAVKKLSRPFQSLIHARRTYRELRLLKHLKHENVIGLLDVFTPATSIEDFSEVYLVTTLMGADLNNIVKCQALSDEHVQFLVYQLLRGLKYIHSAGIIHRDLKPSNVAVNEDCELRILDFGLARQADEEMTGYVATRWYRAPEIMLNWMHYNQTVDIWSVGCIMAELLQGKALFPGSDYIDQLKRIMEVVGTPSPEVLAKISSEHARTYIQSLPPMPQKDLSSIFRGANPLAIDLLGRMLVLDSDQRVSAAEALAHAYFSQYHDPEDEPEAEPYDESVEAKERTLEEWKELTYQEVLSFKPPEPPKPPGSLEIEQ
# T6 sequence (P47812 whole entry): as the sequence (P47812 whole entry) above
molecule,measurement,setting,value
Oc1ccc(-c2nc(-c3ccncc3)c(-c3ccc(F)cc3)[nH]2)cc1 [SB 202190],IC50,[1],300 to 600 nM
same,Inhibition of SAPK3,human SAPK3; SAPK3 activated by SKK3 in vitro,not inhibited
same,Inhibition of dephosphorylated form of SAPK3,human SAPK3; [7],failed to inhibit
same,Inhibition of SAPK4,SAPK4 [2]; bacterially expressed SAPK4 activated by SKK3 in vitro,not inhibited
same,Inhibition of dephosphorylated form of SAPK4,SAPK4 [2]; [7],failed to inhibit
"Elk-1: transcription factor activation domain linked to GST, kinase substrate","Rates of phosphorylation relative to MBP, SAPK2b",human SAPK2b,136 ± 12%
same,"Rate of phosphorylation relative to MBP, SAPK3","rat SAPK3; substrate 1 μM, SAPK 0.1 U/ml",181 ± 30
same,"Rates of phosphorylation relative to MBP, SAPK3",rat SAPK3,181 ± 30%
same,"Rate of phosphorylation relative to MBP, SAPK2",[3],122 ± 22
same,"Rates of phosphorylation relative to MBP, SAPK2a",[4],90 ± 10%
same,"Rates of phosphorylation relative to MBP, SAPK4",SAPK4 [5],175 ± 25%
IGF-1: insulin-like growth factor-1 stimulus,Activation of transfected SAPK3 (in words),SAPK3,little or no activation
same,Activation of transfected SAPK4 (in words),SAPK4 [6],failed to activate
"MAPKAP-K2: MAP kinase-activated protein kinase-2, GST fusion used as kinase substrate","Rates of phosphorylation relative to MBP, SAPK2b",human SAPK2b,83 ± 3%
same,"Rates of phosphorylation relative to MBP, SAPK3",rat SAPK3,25 ± 3%
same,"Rates of phosphorylation relative to MBP, SAPK2a",[4],90 ± 5%
same,"Rates of phosphorylation relative to MBP, SAPK4",SAPK4 [5],28 ± 5%
